# Experimental data as given in IntAct's records for PubMed 23085078.
# B1: mRNA-decapping enzyme 1A (Homo sapiens), Q9NPI6 (parent)
# chain: MEALSRAGQEMSLAALKQHDPYITSIADLTGQVALYTFCPKANQWEKTDIEGTLFVYRRSASPYHGFTIVNRLNMHNLVEPVNKDLEFQLHEPFLLYRNASLSIYSIWFYDKNDCHRIAKLMADVVEEETRRSQQAARDKQSPSQANGCSDHRPIDILEMLSRAKDEYERNQMGDSNISSPGLQPSTQLSNLGSTETLEEMPSGSQDKSAPSGHKHLTVEELFGTSLPKEQPAVVGLDSEEMERLPGDASQKEPNSFLPFPFEQLGGAPQSETLGVPSAAHHSVQPEITTPVLITPASITQSNEKHAPTYTIPLSPVLSPTLPAEAPTAQVPPSLPRNSTMMQAVKTTPRQRSPLLNQPVPELSHASLIANQSPFRAPLNVTNTAGTSLPSVDLLQKLRLTPQHDQIQTQPLGKGAMVASFSPAAGQLATPESFIEPPSKTAAARVAASASLSNMVLAPLQSMQQNQDPEVFVQPKVLSSAIPVAGAPLVTATTTAVSSVLLAPSVFQQTVTRSSDLERKASSPSPLTIGTPESQRKPSIILSKSQLQDTLIHLIKNDSSFLSTLHEVYLQVLTKNKDNHNL
# B2: Proline-rich nuclear receptor coactivator 2 (Homo sapiens), Q9NPJ4-1 (parent)
# chain: MGGGERYNIPAPQSRNVSKNQQQLNRQKTKEQNSQMKIVHKKKERGHGYNSSAAAWQAMQNGGKNKNFPNNQSWNSSLSGPRLLFKSQANQNYAGAKFSEPPSPSVLPKPPSHWVPVSFNPSDKEIMTFQLKTLLKVQV
# partner: B1 chain
# Variants of: B1
# Conditions: with PNRC2, Q9NPJ4-1
row,Variant,effect of a mutation on the interaction
1,MEALSRAGQEMSLAALKQHDPYITSIADLTGQVALATFCPKANQWEKTDIEGTLFVYRRSASPYHGFTIVNRLNMHNLVEPVNKDLEFQLHEPFLLYRNASLSIYSIWFYDKNDCHRIAKLMADVVEEETRRSQQAARDKQSPSQANGCSDHRPIDILEMLSRAKDEYERNQMGDSNISSPGLQPSTQLSNLGSTETLEEMPSGSQDKSAPSGHKHLTVEELFGTSLPKEQPAVVGLDSEEMERLPGDASQKEPNSFLPFPFEQLGGAPQSETLGVPSAAHHSVQPEITTPVLITPASITQSNEKHAPTYTIPLSPVLSPTLPAEAPTAQVPPSLPRNSTMMQAVKTTPRQRSPLLNQPVPELSHASLIANQSPFRAPLNVTNTAGTSLPSVDLLQKLRLTPQHDQIQTQPLGKGAMVASFSPAAGQLATPESFIEPPSKTAAARVAASASLSNMVLAPLQSMQQNQDPEVFVQPKVLSSAIPVAGAPLVTATTTAVSSVLLAPSVFQQTVTRSSDLERKASSPSPLTIGTPESQRKPSIILSKSQLQDTLIHLIKNDSSFLSTLHEVYLQVLTKNKDNHNL [Y36A],decreasing interaction strength
2,MEALSRAGQEMSLAALKQHDPYITSIADLTGQVALYTFCPKANQAEKTDIEGTLFVYRRSASPYHGFTIVNRLNMHNLVEPVNKDLEFQLHEPFLLYRNASLSIYSIWFYDKNDCHRIAKLMADVVEEETRRSQQAARDKQSPSQANGCSDHRPIDILEMLSRAKDEYERNQMGDSNISSPGLQPSTQLSNLGSTETLEEMPSGSQDKSAPSGHKHLTVEELFGTSLPKEQPAVVGLDSEEMERLPGDASQKEPNSFLPFPFEQLGGAPQSETLGVPSAAHHSVQPEITTPVLITPASITQSNEKHAPTYTIPLSPVLSPTLPAEAPTAQVPPSLPRNSTMMQAVKTTPRQRSPLLNQPVPELSHASLIANQSPFRAPLNVTNTAGTSLPSVDLLQKLRLTPQHDQIQTQPLGKGAMVASFSPAAGQLATPESFIEPPSKTAAARVAASASLSNMVLAPLQSMQQNQDPEVFVQPKVLSSAIPVAGAPLVTATTTAVSSVLLAPSVFQQTVTRSSDLERKASSPSPLTIGTPESQRKPSIILSKSQLQDTLIHLIKNDSSFLSTLHEVYLQVLTKNKDNHNL [W45A],decreasing interaction strength
3,MEALSRAGQEMSLAALKQHDPYITSIADLTGQVALYTFCPKANQWEKTDIEGTLFVYRRSASPYHGFTIVNRLNMHNLVEPVNKDLEFQLHEPALLYRNASLSIYSIWFYDKNDCHRIAKLMADVVEEETRRSQQAARDKQSPSQANGCSDHRPIDILEMLSRAKDEYERNQMGDSNISSPGLQPSTQLSNLGSTETLEEMPSGSQDKSAPSGHKHLTVEELFGTSLPKEQPAVVGLDSEEMERLPGDASQKEPNSFLPFPFEQLGGAPQSETLGVPSAAHHSVQPEITTPVLITPASITQSNEKHAPTYTIPLSPVLSPTLPAEAPTAQVPPSLPRNSTMMQAVKTTPRQRSPLLNQPVPELSHASLIANQSPFRAPLNVTNTAGTSLPSVDLLQKLRLTPQHDQIQTQPLGKGAMVASFSPAAGQLATPESFIEPPSKTAAARVAASASLSNMVLAPLQSMQQNQDPEVFVQPKVLSSAIPVAGAPLVTATTTAVSSVLLAPSVFQQTVTRSSDLERKASSPSPLTIGTPESQRKPSIILSKSQLQDTLIHLIKNDSSFLSTLHEVYLQVLTKNKDNHNL [F94A],decreasing interaction strength
4,MEALSRAGQEMSLAALKQHDPYITSIADLTGQVALYTFCPKANQWEKTDIEGTLFVYRRSASPYHGFTIVNRLNMHNLVEPVNKDLEFQLHEPFLAYRNASLSIYSIWFYDKNDCHRIAKLMADVVEEETRRSQQAARDKQSPSQANGCSDHRPIDILEMLSRAKDEYERNQMGDSNISSPGLQPSTQLSNLGSTETLEEMPSGSQDKSAPSGHKHLTVEELFGTSLPKEQPAVVGLDSEEMERLPGDASQKEPNSFLPFPFEQLGGAPQSETLGVPSAAHHSVQPEITTPVLITPASITQSNEKHAPTYTIPLSPVLSPTLPAEAPTAQVPPSLPRNSTMMQAVKTTPRQRSPLLNQPVPELSHASLIANQSPFRAPLNVTNTAGTSLPSVDLLQKLRLTPQHDQIQTQPLGKGAMVASFSPAAGQLATPESFIEPPSKTAAARVAASASLSNMVLAPLQSMQQNQDPEVFVQPKVLSSAIPVAGAPLVTATTTAVSSVLLAPSVFQQTVTRSSDLERKASSPSPLTIGTPESQRKPSIILSKSQLQDTLIHLIKNDSSFLSTLHEVYLQVLTKNKDNHNL [L96A],disrupting interaction strength
5,MEALSRAGQEMSLAALKQHDPYITSIADLTGQVALYTFCPKANQWEKTDIEGTLFVYRRSASPYHGFTIVNRLNMHNLVEPVNKDLEFQLHEPFLLYANASLSIYSIWFYDKNDCHRIAKLMADVVEEETRRSQQAARDKQSPSQANGCSDHRPIDILEMLSRAKDEYERNQMGDSNISSPGLQPSTQLSNLGSTETLEEMPSGSQDKSAPSGHKHLTVEELFGTSLPKEQPAVVGLDSEEMERLPGDASQKEPNSFLPFPFEQLGGAPQSETLGVPSAAHHSVQPEITTPVLITPASITQSNEKHAPTYTIPLSPVLSPTLPAEAPTAQVPPSLPRNSTMMQAVKTTPRQRSPLLNQPVPELSHASLIANQSPFRAPLNVTNTAGTSLPSVDLLQKLRLTPQHDQIQTQPLGKGAMVASFSPAAGQLATPESFIEPPSKTAAARVAASASLSNMVLAPLQSMQQNQDPEVFVQPKVLSSAIPVAGAPLVTATTTAVSSVLLAPSVFQQTVTRSSDLERKASSPSPLTIGTPESQRKPSIILSKSQLQDTLIHLIKNDSSFLSTLHEVYLQVLTKNKDNHNL [R98A],decreasing interaction strength

# Variants of: B2
# Conditions: with dcp1a_human DCP1A
row,Variant,effect of a mutation on the interaction
1,P108A,decreasing interaction strength
2,K109A,disrupting interaction strength
3,W114A,disrupting interaction strength
